In patent US12723255B2, “Herbicide tolerance genes and methods of use thereof” (priority 2014, dated 2026):

Tests used:
Type in all cases: in vivo
[1] = system: F1 hybrid maize plants; experiment: efficacy field trial for 2,4-D tolerance; settings: scale 0 to 100, with CTP unless label says no CTP; for average injury rating, V4 Growth Stage, 8x 2,4-D / average injury rating, V8 Growth Stage, 8x 2,4-D: 8 lb ae/acre at VE-V2, V4, V8; for average injury rating, V4 Growth Stage, 16x 2,4-D / average injury rating, V8 Growth Stage, 16x 2,4-D: 16 lb ae/acre at VE-V2, V4, V8
Method: (§1) Separate trait efficacy field trials for quizalofop-P and 2,4-D were conducted at two locations cach with F1 hybrid transgenic plants produced by crossing an inbred plant containing maize event MON89034 with an R1 plant containing MON-HT55 (with a CTP), MON-HTI (with or without a CTP), MON-HT2 (with or without a CTP), MON-HT3 (with a CTP), MON-HT4 (with a CTP), MON-HT5 (with a CTP), MON-HT6 (with a CTP), or MON-HT7 (with a CTP). Transgenic F1 hybrid plants containing maize events NK603×MON89034 were used for comparison as a control.
In the efficacy field trial for 2,4-D tolerance, one of four herbicide treatments was used: (1) 2,4-D amine at 2 lb ac/acre (2×) plus 0.25% v/v non-ionic surfactant (NIS) applied to VE to V2 followed by V4 followed by V8; (2) 2,4-D amine at 4 lb ac/acre (4×) plus 0.25% v/v NIS applied to VE to V2 followed by V4 followed by V8; (3) 2,4-D amine at 8 lb ac/acre (8×) plus 0.25% v/v NIS applied to VE to V2 followed by V4 followed by V8 maize; or (4) 2,4-D amine at 16 lb ac/acre (16×) plus 0.25% v/v NIS applied to VE to V2 followed by V4 followed by V8. Plots were visually rated as above. Tables 14 and 15 show the average injury ratings after herbicide application at V4 or V8 growth stage, respectively.

[2] = system: F1 hybrid maize plants; experiment: trait efficacy field trial, 2,4-D pressure screening, F1 hybrid; settings: crop injury percentage; for 4X 2,4-D CIPV4 / 4X 2,4-D CIPV8: 4 lb ae/acre at VE-V2, V4, V8; for 8X 2,4-D CIPV4 / 8X 2,4-D CIPV8: 8 lb ae/acre at VE-V2, V4, V8; for 16X 2,4-D CIPV4 / 16X 2,4-D CIPV8: 16 lb ae/acre at VE-V2, V4, V8
Method: Separate trait efficacy field trials for quizalofop-P and 2,4-D pressure screening were conducted at one location each with F1 hybrid transgenic plants produced by crossing an inbred plant containing maize event MON89034 with an R1 plant containing MON-HT1, MON-HT2, MON-HT8, MON-HT9, and MON-HT10 with and without operably linked CTP sequences. Transgenic F1 hybrid plants containing maize events NK603×MON89034 were used for comparison as a control.
Three herbicide treatments were used in the trait efficacy field trial for 2,4-D tolerance: (1) 2,4-D amine at 4 lb ac/acre (4×) plus 0.25% v/v NIS applied to VE-V2 followed by V4 followed by V8; (2) 2,4-D amine at 8 lb ac/acre (8×) plus 0.25% v/v NIS applied to VE-V2 followed by V4followed by V8 maize; or (3) 2,4-D amine at 16 lb ac/acre (16×) plus 0.25% v/v NIS applied to VE-V2 followed by V4 followed by V8. Plots were visually rated as above.
The injury rating for the control plants after all 2,4-D applications ranged from 80% to 96.25%. At the highest rate of 2,4-D (16×) applied through V8, the plants containing MON-HT1 or MON-HT2 operably linked to any of the three CTPs (A, B, or C) had better tolerance than plants containing MON-HT1 or MON-HT2 not operably linked to a CTP. Plants containing MON-HT1, MON-HT2, or MON-HT8 with or without an operably linked CTP had better tolerance to 2,4-D at all applications tested compared to plants containing either MON-HT9 or MON-HT10 with an operably linked ‘A’ CTP. Over the range of 2,4-D applications the relative ranking of tolerance was: plants containing MON-HT1 had better tolerance than plants containing MON-HT2 which were in turn better than plants containing MON-HT8. […] Error was calculated using LSD (0.05).

[3] = system: F1 hybrid maize plants; experiment: efficacy field trial for quizalofop-P tolerance and clethodim sensitivity; settings: scale 0 to 100; for average injury rating, V4 Growth Stage, 4x Quizalofop / average injury rating, V8 Growth Stage, 4x Quizalofop: 0.32 lb ai/acre at VE-V2, V4, V8; for average injury rating, V4 Growth Stage, 4x Quizalofop / average injury rating, V8 Growth Stage, 4x Quizalofop / average injury rating, V4 Growth Stage, 8x Quizalofop / average injury rating, V8 Growth Stage, 8x Quizalofop / average injury rating, V4 Growth Stage, 16x Quizalofop / average injury rating, V8 Growth Stage, 16x Quizalofop: with CTP unless label says no CTP; for average injury rating, V4 Growth Stage, 8x Quizalofop / average injury rating, V8 Growth Stage, 8x Quizalofop: 0.64 lb ai/acre at VE-V2, V4, V8; for average injury rating, V4 Growth Stage, 16x Quizalofop / average injury rating, V8 Growth Stage, 16x Quizalofop: 1.28 lb ai/acre at VE-V2, V4, V8; for average injury rating, V8 Growth Stage, 1x Clethodim: clethodim 0.25 lb ai/acre at V8, volunteer control
Method: as §1
In the efficacy field trial for quizalofop-P tolerance and clethodim sensitivity, one of four herbicide treatments was used: (1) quizalofop-P (Assure II) at 0.32 lb ai/acre (4×) plus 0.25% v/v non-ionic surfactant (NIS) applied at VE-V2 growth stage followed by the same at V4 growth stage followed by the same at V8 growth stage; (2) quizalofop-P at 0.64 lb ai/acre (8×) plus 0.25% v/v NIS applied at VE to V2 growth stage followed by the same at V4 growth stage followed by the same at V8 growth stage; (3) quizalofop-P at 1.28 lb ai/acre (16×) plus 0.25% v/v NIS applied at VE to V2 growth stage followed by the same at V4 growth stage followed by the same at V8growth stage; or (4) clethodim at 0.25 lb ai/acre (1×) plus 0.25% v/v NIS applied at V8 growth stage. Plots were visually rated 10-14 days after application for crop injury on a scale of 0 to 100with “0” being none and “100” being complete crop destruction. Tables 14 and 15 show the average injury ratings after herbicide application at V4 or V8 growth stage, respectively.

B1: MON-HT1: engineered oxygenase protein, amino acid sequence SEQ ID NO:14 (protein)
chain: MHAALTPLTNKYRFIDVQPLTGVLGAEITGVDLREPLDDSTWNEILDAFHTYQVIYFPGQAITNEQHIAFSRRFGPVDPVPILKSIEGYPEVQMIRREANESSRFIGDDWHTDSTFLDAPPAAVVMRAIEVPEYGGDTGFLSMYSAWETLSPTMQATIEGLNVVHSATKVFGSLYQATNWRFSNTSVKVMDVDAGDRETVHPLVVTHPVTGRRALYCNQVYCQKIQGMTDAESKSLLQFLYEHATKFDFTCRVRWKKDQVLVWDNLCTMHRAVPDYAGKFRYLTRTTVAGDKPSR
average injury rating, V4 Growth Stage, 2x 2,4-D ([1]; 2 lb ae/acre at VE-V2, V4, V8): 0.0
average injury rating, V8 Growth Stage, 2x 2,4-D ([1]; 2 lb ae/acre at VE-V2, V4, V8): 1.3
average injury rating, V8 Growth Stage, 2x 2,4-D ([1]; 2 lb ae/acre at VE-V2, V4, V8, listed as MON-HT1 (no CTP)): 2.5
average injury rating, V4 Growth Stage, 4x 2,4-D ([1]; 4 lb ae/acre at VE-V2, V4, V8): 0.0
average injury rating, V8 Growth Stage, 4x 2,4-D ([1]; 4 lb ae/acre at VE-V2, V4, V8): 1.5
average injury rating, V8 Growth Stage, 4x 2,4-D ([1]; 4 lb ae/acre at VE-V2, V4, V8, listed as MON-HT1 (no CTP)): 4.0
average injury rating, V4 Growth Stage, 8x 2,4-D [1]: 5.0
average injury rating, V8 Growth Stage, 8x 2,4-D [1]: 8.3
average injury rating, V4 Growth Stage, 8x 2,4-D ([1]; listed as MON-HT1 (no CTP)): 5.8
average injury rating, V8 Growth Stage, 8x 2,4-D ([1]; listed as MON-HT1 (no CTP)): 8.8
average injury rating, V4 Growth Stage, 16x 2,4-D [1]: 6.3
average injury rating, V8 Growth Stage, 16x 2,4-D [1]: 16.3
average injury rating, V4 Growth Stage, 16x 2,4-D ([1]; listed as MON-HT1 (no CTP)): 12.5
average injury rating, V8 Growth Stage, 16x 2,4-D ([1]; listed as MON-HT1 (no CTP)): 13.8
4X 2,4-D CIPV4 ([2]; CTP A): 5
4X 2,4-D CIPV8 ([2]; CTP A): 5
8X 2,4-D CIPV4 ([2]; CTP A): 5
8X 2,4-D CIPV8 ([2]; CTP A): 10
16X 2,4-D CIPV4 ([2]; CTP A): 7.5
16X 2,4-D CIPV8 ([2]; CTP A): 15
4X 2,4-D CIPV4 ([2]; CTP B): 5
4X 2,4-D CIPV8 ([2]; CTP B): 5
8X 2,4-D CIPV4 ([2]; CTP B): 5
8X 2,4-D CIPV8 ([2]; CTP B): 10
16X 2,4-D CIPV4 ([2]; CTP B): 10
16X 2,4-D CIPV8 ([2]; CTP B): 15
4X 2,4-D CIPV4 ([2]; CTP C): 5
4X 2,4-D CIPV8 ([2]; CTP C): 5
8X 2,4-D CIPV4 ([2]; CTP C): 5
8X 2,4-D CIPV8 ([2]; CTP C): 10
16X 2,4-D CIPV4 ([2]; CTP C): 10
16X 2,4-D CIPV8 ([2]; CTP C): 17.5
4X 2,4-D CIPV4 ([2]; no CTP): 5
4X 2,4-D CIPV8 ([2]; no CTP): 5
8X 2,4-D CIPV4 ([2]; no CTP): 7.5
8X 2,4-D CIPV8 ([2]; no CTP): 10
16X 2,4-D CIPV4 ([2]; no CTP): 10
16X 2,4-D CIPV8 ([2]; no CTP): 22.5
average injury rating, V4 Growth Stage, 4x Quizalofop [3]: 0.0
average injury rating, V8 Growth Stage, 4x Quizalofop [3]: 2.0
average injury rating, V4 Growth Stage, 4x Quizalofop ([3]; listed as MON-HT1 (no CTP)): 5.8
average injury rating, V8 Growth Stage, 4x Quizalofop ([3]; listed as MON-HT1 (no CTP)): 3.3
average injury rating, V4 Growth Stage, 8x Quizalofop [3]: 0.8
average injury rating, V8 Growth Stage, 8x Quizalofop [3]: 2.0
average injury rating, V4 Growth Stage, 8x Quizalofop ([3]; listed as MON-HT1 (no CTP)): 11.3
average injury rating, V8 Growth Stage, 8x Quizalofop ([3]; listed as MON-HT1 (no CTP)): 7.5
average injury rating, V4 Growth Stage, 16x Quizalofop [3]: 4.5
average injury rating, V8 Growth Stage, 16x Quizalofop [3]: 5.5
average injury rating, V4 Growth Stage, 16x Quizalofop ([3]; listed as MON-HT1 (no CTP)): 18.8
average injury rating, V8 Growth Stage, 16x Quizalofop ([3]; listed as MON-HT1 (no CTP)): 16.3
average injury rating, V8 Growth Stage, 1x Clethodim [3]: 93.3
average injury rating, V8 Growth Stage, 1x Clethodim ([3]; listed as MON-HT1 (no CTP)): 94.5
